According to PMC5114558, “Reader domain specificity and lysine demethylase-4 family function” (Nature Communications, 2016):

T1: H3 (17-32) K23me3 peptide, fluorescein-labelled, P68431
T1 chain: RKQLATKAARKSAPAT


Columns and labels:
[1] = target: T1, H3 (17-32) K23me3 peptide, …; test: fluorescence polarization; details: chain shown with the change
[2] = target: H3 (17-32) K23me3 peptide, fluorescein-labelled (UniProt P68431); test: fluorescence polarisation; fluorescein-labelled histone peptide 3 nM, KDM4 DTD titrated 0.1-100 μM; 30 mM HEPES, 150 mM NaCl pH 7.4, 0.01% Triton X-100

Row | Kd [1] [µM] | Kd [2] [µM] | Binder
1 | 3.1 | – | KDM4A double tudor domain (KDM4A-DTD), HaloTag-tagged, wild type, O75164 N931D; D939R; D945R (protein) ALQSITAGQKVISKHKNGRFYQCEVVRLTTETFYEVDFDDGSFSRNLYPERIVSQDCLQFGPPAEGEVVQVRWTDGQVYGAKFVASHPIQMYQVEFEDGSQLVVKRDDVYTLDEELP
2 | – | 73.9 | KDM4A-DTD N931R (domain or fragment) ALQSITAGQKVISKHKNGRFYQCEVVRLTTETFYEVRFDDGSFSDNLYPEDIVSQDCLQFGPPAEGEVVQVRWTDGQVYGAKFVASHPIQMYQVEFEDGSQLVVKRDDVYTLDEELP
3 | – | 285 | KDM4A-DTD Y973A (aromatic cage substitution) (domain or fragment) ALQSITAGQKVISKHKNGRFYQCEVVRLTTETFYEVNFDDGSFSDNLYPEDIVSQDCLQFGPPAEGEVVQVRWTDGQVAGAKFVASHPIQMYQVEFEDGSQLVVKRDDVYTLDEELP
4 | – | 57.4 | KDM4A-DTD N940A (domain or fragment) ALQSITAGQKVISKHKNGRFYQCEVVRLTTETFYEVNFDDGSFSDALYPEDIVSQDCLQFGPPAEGEVVQVRWTDGQVYGAKFVASHPIQMYQVEFEDGSQLVVKRDDVYTLDEELP
5 | – | 0.85 | KDM4A-DTD N931D (domain or fragment) ALQSITAGQKVISKHKNGRFYQCEVVRLTTETFYEVDFDDGSFSDNLYPEDIVSQDCLQFGPPAEGEVVQVRWTDGQVYGAKFVASHPIQMYQVEFEDGSQLVVKRDDVYTLDEELP
